Experimental data reported in PMC5864845, “Engineering enhanced cellobiohydrolase activity” (Nature Communications, 2018).

Substrate: [H][C@@]1(O[C@H]2[C@H](O)[C@@H](O)[C@H](Oc3ccc([N+](=O)[O-])cc3)O[C@@H]2CO)O[C@H](CO)[C@H](O)[C@H](O)[C@H]1O
Test: p-nitrophenol release, A405, Michaelis-Menten fit
Format: biochemical, Trichoderma reesei
Settings: 20 mM acetate pH 5.0, 100 mM NaCl, 40 °C
Experimental: p-nitrophenol release, A405, Michaelis-Menten fit on […] | Vmax and Km were determined using p-nitrophenyl-β-D-lactopyranoside (pNPL, Sigma) as substrate

B1: TrCel7A (Trichoderma reesei) (protein)
chain: QSACTLQSETHPPLTWQKCSSGGTCTQQTGSVVIDANWRWTHATNSSTNCYDGNTWSSTLCPDNETCAKNCCLDGAAYASTYGVTTSGNSLSIGFVTQSAQKNVGARLYLMASDTTYQEFTLLGNEFSFDVDVSQLPCGLNGALYFVSMDADGGVSKYPTNTAGAKYGTGYCDSQCPRDLKFINGQANVEGWEPSSNNANTGIGGHGSCCSEMDIWEANSISEALTPHPCTTVGQEICEGDGCGGTYSDNRYGGTCDPDGCDWNPYRLGNTSFYGPGSSFTLDTTKKLTVVTQFETSGAINRYYVQNGVTFQQPNAELGSYSGNELNDDYCTAEEAEFGGSSFSDKGGLTQFKKATSGGMVLVMSLWDDYYANMLWLDSTYPTNETSSTPGAVRGSCSTSSGVPAQVESQSPNAKVTFSNIKFGPIGSTGNPSGGNPPGGNRGTTTTRRPATTTGSSPGPTQSHYGQCGGIGYSGPTVCASGTTCQVLNPYYSQCL
notes: full length wild type (catalytic domain, linker, CBM1), secreted and purified from Trichoderma reesei AST1116 (QM6A, cbh1 deletion) host, pTrEno
- Km: 2195 ± 880 µM
- kcat: 0.2377 ± 0.0175 s⁻¹
